Source: patent publication US9718864B2 (HAINAN UNIVERSITY, dated 2017)
No end group written: not given here.

Key:
Test in all cases: cell-based or functional assay
rat α7 nAChR = rat α7 nAChR (rat, UniProt Q05941)
[1] = biological target: rat NMDA receptor NR1-2b/NR2A (rat, UniProt P35439)
[2] = biological target: rat NMDA receptor NR1-2b/NR2D (rat, UniProt P35439)

Binder	Half-blocking dose IC50 of ACh-gated current (rat α7 nAChR) [µM]	Half-blocking dose IC50 of NMDA receptor current [1] [µM]	Half-blocking dose IC50 of NMDA receptor current [2] [µM]
TCRSSGRYCRSPYDRRRRYCRRITDACV (not fully specified; ends and bridges not checked) [αO-conotoxin GeXIVA13]	4.96	> 10	≥ 10
TCRSSGRYCRSPYDRRRRYCRRITDACV (not fully specified; ends and bridges not checked) [αO-conotoxin GeXIVA14]			≥ 10
